{
  "source": "paper PMC3401230",
  "about": "“The Crystal Structures of Dystrophin and Utrophin Spectrin Repeats: Implications for Domain Boundaries” (PLoS ONE, 2012)",
  "proteins": {"B1": {"name": "Dystrophin N-terminal (repeat 1) spectrin repeat (domain or fragment, human, UniProt P11532 338-456, looked up)", "chain": "EVNLDRYQTALEEVLSWLLSAEDTLQAQGEISNDVEVVKDQFHTHEGYMMDLTAHQGRVGNILQLGSKLIGTGKLSEDEETEVQEQMNLLNSRWECLRVASMEKQSNLHRVLMDLQNQK", "notes": "dystrophin, human, residues 338-456 (first spectrin repeat); Without a reducing agent part of the protein is a dimer linked by a disulphide bond between C433 of each molecule; The model in PDB 3UUN holds residues 338-453 (monomer A) and 339-452 (monomer B); Tag and cleavage are told only as 'prepared in an equivalent manner' to Utr-SR1; also called Dys-SR1; source: E. coli BL21(DE3), purified in …"}},
  "molecular_target": "the molecule itself",
  "assay": "SEC; Superdex 75 HR 30/10; Utr-SR1 in 20 mM Tris pH 8.0, 50 mM NaCl; Dys-SR1 in PBS; no DTT added",
  "data": [
    {"protein": "B1", "values": [
      {"measurement": "binding result", "result": "binds"}
    ]}
  ]
}
